Source: paper PMC7857400 (2020)

What was measured:
[1] = target: T1, SARS-CoV-2 spike protein receptor binding domain (RBD) (SARS-CoV-2, UniProt P0DTC2 319-541); assay: SPR
[2] = target: T1, SARS-CoV-2 spike protein receptor …; assay: SPR; remark: listed apart in the source

B1: Nb21 (VHH)
VHH: QVQLVESGGGLVQAGGSLRLSCAVSGLGAHRVGWFRRAPGKEREFVAAIGANGGNTNYLDSVKGRFTISRDNAKNTIYLQMNSLKPQDTAVYYCAARDIETAEYTYWGQGTQVTVSS
koff [1]: < 1e-06 s⁻¹ | Kd [2]: < 1 pM
